{"source": "patent US20150329638A1", "about": "(Biogen, published 2015)", "binders": {"B1": {"name": "M53-E04 (Fab, V domains shown)", "VH": "EVQLLESGGGLVQPGGSLRLSCAASGFTFSNYEMSWVRQAPGKGLEWVSSIYSSGGETLYADSVKGRFTISRDNSKNTLYLQMNSLRAEDTAVYYCARDGAADYWGQGTLVTVSS", "VL": "QSELTQPPSASGTPGQWVTISCSGSTSNIGNNYVYWYQQLPGTAPKLLIYTNNQRPSGVPDRFSGSKSGTSASLAISGLRSEDEADYYCATWDDSLYAPVFGGGTKVTVL", "notes": "The format in the assay (Fab or full IgG) is therefore not certain; also called EO4 antibody; E04 mAb"}, "B2": {"name": "1P5D10.2 (antibody, V domains shown)", "VH": "EVQLVESGGGLVKPGGSLKLSCAASGFTFSDYYMYWVRQTPEKRLEWVATISDGGLYTYYQDSVKGRFTISRDNAKNNLYLQMSSLKSEDTAMYYCAREDDYDGDFYTMDYWGQGTSVTVSS", "VL": "QIVLTQSPAIMSASPGEKVTITCSASSSVSYMHWFQQKPGTSPKLWIYSTSNLASGVPARFSGSGSGTSYSLTISRMEAEDAATYYCQQRSSYPLTFGAGTKLELK", "notes": "Murine monoclonal antibody from a hybridoma; also called DR6 antagonist monoclonal antibody 5D10; anti-DR6 antibody 5D10"}, "B3": {"name": "1P5D10.2(Y93A) (antibody, V domains shown)", "VH": "B2 VH", "VL": "B2 VL with Y93A", "notes": "Single point mutant (Y93A, light chain variable domain) of 5D10; also called 5D10Y93A"}}, "key": {"[1]": {"molecular_target": "T1, human DR6 (Death Receptor-6, TNFRSF21) (human, UniProt O75509 42-655)", "T1 sequence": "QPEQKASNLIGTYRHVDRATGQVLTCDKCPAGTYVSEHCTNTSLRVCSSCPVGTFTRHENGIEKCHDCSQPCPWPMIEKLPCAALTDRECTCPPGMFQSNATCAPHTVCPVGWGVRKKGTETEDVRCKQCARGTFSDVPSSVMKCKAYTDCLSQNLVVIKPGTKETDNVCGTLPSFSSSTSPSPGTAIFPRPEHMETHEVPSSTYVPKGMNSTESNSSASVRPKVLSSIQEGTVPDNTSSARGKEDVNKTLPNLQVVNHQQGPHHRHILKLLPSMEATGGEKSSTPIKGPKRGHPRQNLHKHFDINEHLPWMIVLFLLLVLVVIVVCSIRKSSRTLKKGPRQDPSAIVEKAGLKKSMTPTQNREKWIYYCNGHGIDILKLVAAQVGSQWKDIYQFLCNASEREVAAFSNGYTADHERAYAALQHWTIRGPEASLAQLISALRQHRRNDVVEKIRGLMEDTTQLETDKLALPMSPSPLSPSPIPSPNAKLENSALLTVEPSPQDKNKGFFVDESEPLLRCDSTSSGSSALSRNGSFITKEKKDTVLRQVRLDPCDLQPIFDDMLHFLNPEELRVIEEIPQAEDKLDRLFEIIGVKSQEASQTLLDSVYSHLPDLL", "experiment": "FACS direct binding on transiently transfected HEK293 cells", "experimental": "(§1) The apparent Kd of 5D10 and M53-E04 for rat and human DR6 was estimated using transiently transfected HEK293 cells in a FACS direct binding assay. Approximately 50,000 cells in 150 uL of PBS, 1% BSA, 0.1% NaN3 (FACS buffer) were analyzed. Cells were pelleted and resuspended in 150 uL of serial dilutions of the antibodies in FACS buffer. Samples were incubated for 1 hr on ice with occasional agitation and then washed 3 times. Bound antibodies were visualized with PE-labeled goat F(ab)2 anti-human or anti-mouse Fab specific antibody (Jackson Labs).\n(§2) The binding affinities of 5D10 or M53-E04 to cyno monkey DR6 were similar to human DR6. A single point mutation (Y93A) was introduced to 5D10 based on the co-crystal structure of DR6-5D10 (FIG. 6)."}, "rat DR6 [2]": {"molecular_target": "T2, rat DR6 (rat, UniProt D3ZF92 42-655)", "T2 construct": "Full length rat DR6 expressed on transfected HEK293 cells", "T2 sequence": "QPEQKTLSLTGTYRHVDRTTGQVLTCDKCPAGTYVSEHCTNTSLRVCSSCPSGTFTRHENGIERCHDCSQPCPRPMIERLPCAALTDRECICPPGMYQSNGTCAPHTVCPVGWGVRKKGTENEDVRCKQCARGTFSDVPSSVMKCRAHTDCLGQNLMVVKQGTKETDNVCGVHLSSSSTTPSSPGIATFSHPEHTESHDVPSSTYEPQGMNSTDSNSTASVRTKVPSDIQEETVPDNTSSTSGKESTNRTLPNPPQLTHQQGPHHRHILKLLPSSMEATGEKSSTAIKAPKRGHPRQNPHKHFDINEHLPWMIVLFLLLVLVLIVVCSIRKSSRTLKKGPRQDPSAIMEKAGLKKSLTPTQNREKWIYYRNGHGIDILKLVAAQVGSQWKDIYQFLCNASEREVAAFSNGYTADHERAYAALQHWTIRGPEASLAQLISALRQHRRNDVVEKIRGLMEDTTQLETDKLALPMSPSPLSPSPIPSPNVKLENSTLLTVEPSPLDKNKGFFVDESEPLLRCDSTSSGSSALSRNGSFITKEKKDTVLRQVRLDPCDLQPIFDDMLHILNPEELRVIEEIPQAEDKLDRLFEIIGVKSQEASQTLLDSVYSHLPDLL", "experiment": "FACS direct binding on transiently transfected HEK293 cells", "experimental": "as §1, §2"}, "mouse DR6": {"molecular_target": "T3, mouse DR6 (mouse, UniProt Q9EPU5 42-655)", "T3 sequence": "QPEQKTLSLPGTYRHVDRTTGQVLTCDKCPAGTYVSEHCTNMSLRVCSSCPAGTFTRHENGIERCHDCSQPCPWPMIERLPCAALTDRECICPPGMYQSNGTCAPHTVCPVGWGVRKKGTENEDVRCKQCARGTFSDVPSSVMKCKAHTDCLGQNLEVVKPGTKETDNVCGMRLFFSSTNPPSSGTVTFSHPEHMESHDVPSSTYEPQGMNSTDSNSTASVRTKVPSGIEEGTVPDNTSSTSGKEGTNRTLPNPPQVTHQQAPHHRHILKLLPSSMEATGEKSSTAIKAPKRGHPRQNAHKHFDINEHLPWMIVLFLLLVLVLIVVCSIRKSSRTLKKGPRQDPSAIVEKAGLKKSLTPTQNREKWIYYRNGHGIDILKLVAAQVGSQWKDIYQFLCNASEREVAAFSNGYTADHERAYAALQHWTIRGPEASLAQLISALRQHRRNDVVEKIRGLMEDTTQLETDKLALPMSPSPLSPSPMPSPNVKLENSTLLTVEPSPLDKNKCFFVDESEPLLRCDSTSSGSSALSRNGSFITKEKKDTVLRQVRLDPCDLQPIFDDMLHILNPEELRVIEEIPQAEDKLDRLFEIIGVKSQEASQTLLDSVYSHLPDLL", "experiment": "flow cytometry on HEK293 cells transfected with full length DR6", "experimental": "Six million HEK293 cells were transfected with 10 ug of plasmid DNA, which encoded full length human, rat, or mouse DR6. Three days after transfection, approximately 50,000 cells in 200 μL of PBS, 1% BSA, 0.1% NaN3 (FACS buffer) were analyzed. Cells were pelleted and resuspended in 150 μL of serial dilutions of anti-DR6 antibodies in FACS buffer. Samples were incubated for 1 hour on ice with occasional agitation and then washed three times. Bound DR6 antibody was visualized with PE-labeled goat F(ab)₂ anti-human Fab (for Dyax Fabs) or anti-mouse IgG specific antibody (for monoclonal antibodies) (Jackson Labs). […] Although both antibodies bind to DR6, the EO4 antibody leads to cell death, whereas 5D10 promotes cell survival. FIG. 5B."}, "[3]": {"molecular_target": "T1, human DR6 (Death Receptor-6, TNFRSF21)", "experiment": "cell-based or functional assay"}, "rat DR6 [4]": {"molecular_target": "T2, rat DR6", "experiment": "binding to rat DR6 (FIG. 6)"}}, "note": "Substitutions are numbered along the chain they refer to. In names and notes the source's numbering stands.", "data": [{"binder": "B1", "values": [{"measurement": "EC50", "setting": "[1]", "value": 0.05, "unit": "nM"}, {"measurement": "EC50", "setting": "rat DR6 [2]", "value": 0.1, "unit": "nM"}, {"measurement": "binding result", "setting": "mouse DR6", "value": "binds"}]}, {"binder": "B2", "values": [{"measurement": "motor neuron survival following sodium arsenite treatment (cell number)", "setting": "[3]", "value": 3, "unit": "fold"}, {"measurement": "EC50", "setting": "[1]", "value": 0.1, "unit": "nM"}, {"measurement": "EC50", "setting": "rat DR6 [2]", "value": 60, "unit": "nM"}, {"measurement": "binding result", "setting": "mouse DR6", "value": "binds"}]}, {"binder": "B3", "values": [{"measurement": "binding result", "setting": "rat DR6 [4]", "value": "binds"}]}]}
